Source: US20260167699A1 (Chugai, published 2026)

What was measured:
Experiment in all cases: SPR, relative to GpH7-A5/GpH7-B3/GpL16-k0 =100
FcγRIIa(H) = target: T1, FcγRIIa(H) (human, UniProt P12318 34-217)
T1 construct: extracellular domain; also called 2aH
T1 sequence: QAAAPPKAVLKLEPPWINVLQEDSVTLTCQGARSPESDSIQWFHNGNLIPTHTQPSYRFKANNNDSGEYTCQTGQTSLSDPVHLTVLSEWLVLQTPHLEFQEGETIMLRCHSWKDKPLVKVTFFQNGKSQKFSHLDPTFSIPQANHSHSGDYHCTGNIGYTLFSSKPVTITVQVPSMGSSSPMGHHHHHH

FcγRIa = target: T2, FcγRIa (human, UniProt P12314 16-292)
T2 construct: extracellular domain; also called 1a
T2 sequence (P12314 other isoform, or with tags, fused parts or gaps): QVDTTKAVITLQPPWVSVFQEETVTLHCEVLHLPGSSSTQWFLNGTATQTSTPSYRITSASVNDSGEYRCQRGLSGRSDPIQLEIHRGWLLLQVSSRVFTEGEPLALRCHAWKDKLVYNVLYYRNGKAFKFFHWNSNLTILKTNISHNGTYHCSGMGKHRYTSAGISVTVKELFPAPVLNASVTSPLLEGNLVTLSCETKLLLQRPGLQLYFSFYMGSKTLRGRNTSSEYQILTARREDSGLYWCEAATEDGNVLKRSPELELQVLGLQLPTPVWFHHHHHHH

FcγRIIa(R) = target: T3, FcγRIIa(R) (human, UniProt P12318 34-217)
T3 construct: extracellular domain; also called 2aR
T3 sequence: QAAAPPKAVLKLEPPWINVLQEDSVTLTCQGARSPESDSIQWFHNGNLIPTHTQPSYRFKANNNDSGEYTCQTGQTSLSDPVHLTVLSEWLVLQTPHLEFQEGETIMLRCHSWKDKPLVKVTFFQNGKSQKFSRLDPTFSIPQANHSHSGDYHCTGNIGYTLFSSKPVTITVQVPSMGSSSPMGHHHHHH

FcγRIIb = target: T4, FcγRIIb (human, UniProt P31994 43-217)
T4 construct: extracellular domain; also called 2b
T4 sequence: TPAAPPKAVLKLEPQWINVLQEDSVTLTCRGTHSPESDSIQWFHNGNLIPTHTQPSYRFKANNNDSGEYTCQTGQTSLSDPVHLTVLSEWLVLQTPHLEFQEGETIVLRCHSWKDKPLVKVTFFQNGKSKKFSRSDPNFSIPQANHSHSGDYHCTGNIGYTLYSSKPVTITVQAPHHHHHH

| He/Con 2aH (FcγRIIa(H)) [%] | He/Con 1a (FcγRIa) [%] | He/Con 2aR (FcγRIIa(R)) [%] | He/Con 2b (FcγRIIb) [%] | Binder |
| --- | --- | --- | --- | --- |
| 146 | 101 | 150 | 186 | GpH7-A5/GpH7-B3 variant L328_13S/GpL16-k0 (antibody, human IgG1, kappa, He Ab: heterodimerized IgG1, one H chain mutated) heavy 1: not shown heavy 2: not shown light: DIVMTQSPLSLPVTPGEPASISCQASESLVHSNRNTYLHWYLQKPGQSPQLLIYKVSNRFSGVPDRFSGSGSGTDFTLKISRVEAEDVGVYYCSQNTHVPPTFGQGTKVEIERTVAAPSVFIFPPSDEQLKSGTASVVCLLNNFYPREAKVQWKVDNALQSGNSQESVTEQDSKDSTYSLSSTLTLSKADYEKHKVYACEVTHQGLSSPVTKSFNRGEC |
| 62.5 | 96.1 | 60.3 | 51.6 | GpH7-A5/GpH7-B3 variant Q295_01G/GpL16-k0 (antibody, human IgG1, kappa, He Ab: heterodimerized IgG1, one H chain mutated) heavy 1: not shown heavy 2: not shown light: DIVMTQSPLSLPVTPGEPASISCQASESLVHSNRNTYLHWYLQKPGQSPQLLIYKVSNRFSGVPDRFSGSGSGTDFTLKISRVEAEDVGVYYCSQNTHVPPTFGQGTKVEIERTVAAPSVFIFPPSDEQLKSGTASVVCLLNNFYPREAKVQWKVDNALQSGNSQESVTEQDSKDSTYSLSSTLTLSKADYEKHKVYACEVTHQGLSSPVTKSFNRGEC |
| 84.5 | 98.5 | 106 | 100 | GpH7-A5/GpH7-B3 variant L328_16H/GpL16-k0 (antibody, human IgG1, kappa, He Ab: heterodimerized IgG1, one H chain mutated) heavy 1: not shown heavy 2: not shown light: DIVMTQSPLSLPVTPGEPASISCQASESLVHSNRNTYLHWYLQKPGQSPQLLIYKVSNRFSGVPDRFSGSGSGTDFTLKISRVEAEDVGVYYCSQNTHVPPTFGQGTKVEIERTVAAPSVFIFPPSDEQLKSGTASVVCLLNNFYPREAKVQWKVDNALQSGNSQESVTEQDSKDSTYSLSSTLTLSKADYEKHKVYACEVTHQGLSSPVTKSFNRGEC |
| 57.6 | 81.4 | 72.7 | 59.5 | GpH7-A5/GpH7-B3 variant P329_10E/GpL16-k0 (antibody, human IgG1, kappa, He Ab: heterodimerized IgG1, one H chain mutated) heavy 1: not shown heavy 2: not shown light: DIVMTQSPLSLPVTPGEPASISCQASESLVHSNRNTYLHWYLQKPGQSPQLLIYKVSNRFSGVPDRFSGSGSGTDFTLKISRVEAEDVGVYYCSQNTHVPPTFGQGTKVEIERTVAAPSVFIFPPSDEQLKSGTASVVCLLNNFYPREAKVQWKVDNALQSGNSQESVTEQDSKDSTYSLSSTLTLSKADYEKHKVYACEVTHQGLSSPVTKSFNRGEC |
| 57.1 | 80.1 | 76 | 60.4 | GpH7-A5/GpH7-B3 variant P329_09D/GpL16-k0 (antibody, human IgG1, kappa, He Ab: heterodimerized IgG1, one H chain mutated) heavy 1: not shown heavy 2: not shown light: DIVMTQSPLSLPVTPGEPASISCQASESLVHSNRNTYLHWYLQKPGQSPQLLIYKVSNRFSGVPDRFSGSGSGTDFTLKISRVEAEDVGVYYCSQNTHVPPTFGQGTKVEIERTVAAPSVFIFPPSDEQLKSGTASVVCLLNNFYPREAKVQWKVDNALQSGNSQESVTEQDSKDSTYSLSSTLTLSKADYEKHKVYACEVTHQGLSSPVTKSFNRGEC |
| 55.3 | 105 | 111 | 139 | GpH7-A5/GpH7-B3 variant N325_09D/GpL16-k0 (antibody, human IgG1, kappa, He Ab: heterodimerized IgG1, one H chain mutated) heavy 1: not shown heavy 2: not shown light: DIVMTQSPLSLPVTPGEPASISCQASESLVHSNRNTYLHWYLQKPGQSPQLLIYKVSNRFSGVPDRFSGSGSGTDFTLKISRVEAEDVGVYYCSQNTHVPPTFGQGTKVEIERTVAAPSVFIFPPSDEQLKSGTASVVCLLNNFYPREAKVQWKVDNALQSGNSQESVTEQDSKDSTYSLSSTLTLSKADYEKHKVYACEVTHQGLSSPVTKSFNRGEC |
| 71.4 | 100 | 94.5 | 81.2 | GpH7-A5/GpH7-B3 variant S298_01G/GpL16-k0 (antibody, human IgG1, kappa, He Ab: heterodimerized IgG1, one H chain mutated) heavy 1: not shown heavy 2: not shown light: DIVMTQSPLSLPVTPGEPASISCQASESLVHSNRNTYLHWYLQKPGQSPQLLIYKVSNRFSGVPDRFSGSGSGTDFTLKISRVEAEDVGVYYCSQNTHVPPTFGQGTKVEIERTVAAPSVFIFPPSDEQLKSGTASVVCLLNNFYPREAKVQWKVDNALQSGNSQESVTEQDSKDSTYSLSSTLTLSKADYEKHKVYACEVTHQGLSSPVTKSFNRGEC |
| 83 | 102 | 137 | 198 | GpH7-A5/GpH7-B3 variant N325_13S/GpL16-k0 (antibody, human IgG1, kappa, He Ab: heterodimerized IgG1, one H chain mutated) heavy 1: not shown heavy 2: not shown light: DIVMTQSPLSLPVTPGEPASISCQASESLVHSNRNTYLHWYLQKPGQSPQLLIYKVSNRFSGVPDRFSGSGSGTDFTLKISRVEAEDVGVYYCSQNTHVPPTFGQGTKVEIERTVAAPSVFIFPPSDEQLKSGTASVVCLLNNFYPREAKVQWKVDNALQSGNSQESVTEQDSKDSTYSLSSTLTLSKADYEKHKVYACEVTHQGLSSPVTKSFNRGEC |
| 83.2 | 106 | 82.5 | 65.4 | GpH7-A5/GpH7-B3 variant S298_03V/GpL16-k0 (antibody, human IgG1, kappa, He Ab: heterodimerized IgG1, one H chain mutated) heavy 1: not shown heavy 2: not shown light: DIVMTQSPLSLPVTPGEPASISCQASESLVHSNRNTYLHWYLQKPGQSPQLLIYKVSNRFSGVPDRFSGSGSGTDFTLKISRVEAEDVGVYYCSQNTHVPPTFGQGTKVEIERTVAAPSVFIFPPSDEQLKSGTASVVCLLNNFYPREAKVQWKVDNALQSGNSQESVTEQDSKDSTYSLSSTLTLSKADYEKHKVYACEVTHQGLSSPVTKSFNRGEC |
| 103 | 104 | 115 | 131 | GpH7-A5/GpH7-B3 variant L328_19Q/GpL16-k0 (antibody, human IgG1, kappa, He Ab: heterodimerized IgG1, one H chain mutated) heavy 1: not shown heavy 2: not shown light: DIVMTQSPLSLPVTPGEPASISCQASESLVHSNRNTYLHWYLQKPGQSPQLLIYKVSNRFSGVPDRFSGSGSGTDFTLKISRVEAEDVGVYYCSQNTHVPPTFGQGTKVEIERTVAAPSVFIFPPSDEQLKSGTASVVCLLNNFYPREAKVQWKVDNALQSGNSQESVTEQDSKDSTYSLSSTLTLSKADYEKHKVYACEVTHQGLSSPVTKSFNRGEC |
| 75.5 | 106 | 80.4 | 66.3 | GpH7-A5/GpH7-B3 variant S298_04F/GpL16-k0 (antibody, human IgG1, kappa, He Ab: heterodimerized IgG1, one H chain mutated) heavy 1: not shown heavy 2: not shown light: DIVMTQSPLSLPVTPGEPASISCQASESLVHSNRNTYLHWYLQKPGQSPQLLIYKVSNRFSGVPDRFSGSGSGTDFTLKISRVEAEDVGVYYCSQNTHVPPTFGQGTKVEIERTVAAPSVFIFPPSDEQLKSGTASVVCLLNNFYPREAKVQWKVDNALQSGNSQESVTEQDSKDSTYSLSSTLTLSKADYEKHKVYACEVTHQGLSSPVTKSFNRGEC |
| 138 | 103 | 153 | 176 | GpH7-A5/GpH7-B3 variant L328_14T/GpL16-k0 (antibody, human IgG1, kappa, He Ab: heterodimerized IgG1, one H chain mutated) heavy 1: not shown heavy 2: not shown light: DIVMTQSPLSLPVTPGEPASISCQASESLVHSNRNTYLHWYLQKPGQSPQLLIYKVSNRFSGVPDRFSGSGSGTDFTLKISRVEAEDVGVYYCSQNTHVPPTFGQGTKVEIERTVAAPSVFIFPPSDEQLKSGTASVVCLLNNFYPREAKVQWKVDNALQSGNSQESVTEQDSKDSTYSLSSTLTLSKADYEKHKVYACEVTHQGLSSPVTKSFNRGEC |
| 106 | 104 | 174 | 240 | GpH7-A5/GpH7-B3 variant L328_15Y/GpL16-k0 (antibody, human IgG1, kappa, He Ab: heterodimerized IgG1, one H chain mutated) heavy 1: not shown heavy 2: not shown light: DIVMTQSPLSLPVTPGEPASISCQASESLVHSNRNTYLHWYLQKPGQSPQLLIYKVSNRFSGVPDRFSGSGSGTDFTLKISRVEAEDVGVYYCSQNTHVPPTFGQGTKVEIERTVAAPSVFIFPPSDEQLKSGTASVVCLLNNFYPREAKVQWKVDNALQSGNSQESVTEQDSKDSTYSLSSTLTLSKADYEKHKVYACEVTHQGLSSPVTKSFNRGEC |
| 80.6 | 101 | 76.4 | 101 | GpH7-A5/GpH7-B3 variant L328_18N/GpL16-k0 (antibody, human IgG1, kappa, He Ab: heterodimerized IgG1, one H chain mutated) heavy 1: not shown heavy 2: not shown light: DIVMTQSPLSLPVTPGEPASISCQASESLVHSNRNTYLHWYLQKPGQSPQLLIYKVSNRFSGVPDRFSGSGSGTDFTLKISRVEAEDVGVYYCSQNTHVPPTFGQGTKVEIERTVAAPSVFIFPPSDEQLKSGTASVVCLLNNFYPREAKVQWKVDNALQSGNSQESVTEQDSKDSTYSLSSTLTLSKADYEKHKVYACEVTHQGLSSPVTKSFNRGEC |
| 74.3 | 103 | 87.2 | 74.4 | GpH7-A5/GpH7-B3 variant S298_02A/GpL16-k0 (antibody, human IgG1, kappa, He Ab: heterodimerized IgG1, one H chain mutated) heavy 1: not shown heavy 2: not shown light: DIVMTQSPLSLPVTPGEPASISCQASESLVHSNRNTYLHWYLQKPGQSPQLLIYKVSNRFSGVPDRFSGSGSGTDFTLKISRVEAEDVGVYYCSQNTHVPPTFGQGTKVEIERTVAAPSVFIFPPSDEQLKSGTASVVCLLNNFYPREAKVQWKVDNALQSGNSQESVTEQDSKDSTYSLSSTLTLSKADYEKHKVYACEVTHQGLSSPVTKSFNRGEC |
